No end group written: not given here.

What all share (assay): SPR
For orientation: SPR reads the build-up and loss of mass on a sensor chip optically.

The target of assay [1] is T1, C-terminal SH2 domain of SHP2.
T1 chain: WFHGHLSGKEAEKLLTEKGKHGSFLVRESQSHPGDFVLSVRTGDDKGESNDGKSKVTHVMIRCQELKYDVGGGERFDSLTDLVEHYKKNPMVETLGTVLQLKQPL

In assay [2] the target is T2, dual SH2 domains of SHP2.
T2 chain: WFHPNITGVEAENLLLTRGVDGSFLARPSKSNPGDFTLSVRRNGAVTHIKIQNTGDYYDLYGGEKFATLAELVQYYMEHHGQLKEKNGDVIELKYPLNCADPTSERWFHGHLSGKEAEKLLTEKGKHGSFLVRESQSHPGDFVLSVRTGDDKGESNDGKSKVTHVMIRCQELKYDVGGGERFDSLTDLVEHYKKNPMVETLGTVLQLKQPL

Assay [3] addresses T3, N-terminal SH2 domain of SHP2.
T3 chain: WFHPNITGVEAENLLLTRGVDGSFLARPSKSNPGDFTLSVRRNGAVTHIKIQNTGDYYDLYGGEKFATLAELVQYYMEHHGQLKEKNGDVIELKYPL

For assay [4], the target named is T1, C-terminal SH2 domain of SHP2.
The target of assay [5] is T2, dual SH2 domains of SHP2.
The target of assay [6] is T3, N-terminal SH2 domain of SHP2.

For the molecule KEDPSAVPVFSVDYGELDFQWRE (also: phosphorylated, residue not given here, biotinylated, site not given here) [phosphorylated PD1 ITIM peptide], the values for the Kd (in assay [1]; with dual SH2 domains of SHP2 [2]; in assay [3]) were 0.638 nM, 1.84 nM and 3.35 nM, respectively. Besides, the koff in assay [4] turned out to be 0.00329 s⁻¹; with dual SH2 domains of SHP2 [5] it was 0.000121 s⁻¹; in assay [6] it was 0.000297 s⁻¹.

B1: phosphorylated PD1 ITSM peptide (peptide)
chain: KTPEPPVPSVPEQTEYATIVFPSGMGTSS
modifications: also: phosphorylated, residue not given here, biotinylated, position not given here
B1: the Kd in assay [1] amounted to 15.1 nM; in the assay with dual SH2 domains of SHP2 [2] it was 3.01 nM; in assay [3], 0.442 nM.

Broadly, the Kd is a measure of binding affinity in units of concentration. Read a high Kd as a looser complex. A word on the koff: it is the first-order rate constant of dissociation. Low values mean slow dissociation, high ones fast dissociation.
